Read-outs that look alike come from different tables or passages of the source.
Tests used:
[1] = target: T1, bio-S ecto Sino (SARS-CoV-2, UniProt P0DTC2 16-1213); test: single trace
T1 construct: also called SARS-CoV-2 Spike Protein (Sino Biologics, cat. 40589-V08B1); SARS-Cov-2 S protein (S1+S2 ECT, His-tag)

[2] = target: bio-RBD Fc Acro (SARS-CoV-2); test: SPR, single trace
[3] = target: T1, bio-S ecto Sino
[4] = target: T2, SARS-CoV-2 (COVID-19) S protein RBD (cat. SPD-C5255, lot. BV3539b-203FF1-203K) (SARS-CoV-2, UniProt P0DTC2 319-537)
[5] = target: T3, bio-S1 Acro (SARS-CoV-2, UniProt P0DTC2 16-685); test: SPR
[6] = target: T1, bio-S ecto Sino; remark: listed apart in the source
[7] = target: T4, S ecto U (SARS-CoV-2, UniProt P0DTC2 16-1213)
[8] = target: T3, bio-S1 Acro; test: SPR, single trace
[9] = target: T4, S ecto U; test: SPR, ProteOn XPR36, fitted curves (FIG. 9c)
[10] = target: T1, bio-S ecto Sino; remark: listed apart in the source
[11] = target: T2, SARS-CoV-2 (COVID-19) S protein RBD …; remark: listed apart in the source

B1: vS07_07F02 (designed binder)
chain: MRGSHHHHHHGSDLGLKLLTAAKQGQDDEVRILLAAGADVNAKDYRGLTPLHYAAAIGHLEIVEVLLKAGADVNAKDQYGATPLHVAAYIGHLEIVEVLLKAGADVNAQDFSGSTPADLAAEEGHEDIAEVLQKAA
notes: also called RN1
- Kd [1]: 14000 pM
- binding result [2]: binds

B2: vS07_26C03 (designed binder)
chain: MRGSHHHHHHGSDLGWKLLWAAQVGQDDEVRILLAAGADVNAKDDLGWTPLHIAAWVGHLEIVEVLLKAGADVNAKDFTGRTPLHHAATEGHLEIVKVLLKAGADVNAQDDVGHTPADLAALWGHEDIAEVLQKAA
notes: also called RN2
- Kd [3]: 23000 pM
- binding result [2]: binds

B3: ALE033 (designed binder)
chain: MRGSHHHHHHGSDLGKKLLEAARAGQDDEVRELLKAGADVNAKDYFSHTPLHLAARNGHLKIVEVLLKAGADVNAKDFAGKTPLHLAANEGHLEIVEVLLKAGADVNAQDIFGKTPADIAADAGHEDIAEVLQKAAGSPTPTPTTPTPTPTTPTPTPTGSDLGKKLLEAARAGQDDEVRELLKAGADVNAKDYFSHTPLHLAARNGHLKIVEVLLKAGADVNAKDFAGKTPLHLAANEGHLEIVEVLLKAGADVNAQDIFGKTPADIAADAGHEDIAEVLQKAAGSPTPTPTTPTPTPTTPTPTPTGSDLGKKLLQAARAGQLDEVRELLKAGADVNAKDREGITPLHLAAQHGHLEIVEVLLKAGADVNAKDVWGRTPLHLAAWQGHLEIVEVLLKAGADVNAKDLAGATPLHVAALYGHLEIVEVLLKAGADVNAQDKSGKTPADLAARAGHQDIAEVLQKAAGSPTPTPTTPTPTPTTPTPTPTGSDLGKKLLQAARAGQLDEVRELLKAGADVNAKDREGKTPLHVAAQEGHLEIVEVLLKAGADVNAKDVWGRTPLHLAAWIGHLEIVEVLLKAGADVNAKDVSGATPLHAAALHGHLEIVEVLLNAGADVNAQDKSGKTPADLAARAGHQDIAEVLQKAAGSPTPTPTTPTPTPTTPTPTPTGSDLGKKLLQAARAGQLDEVRELLKAGADVNAKDREGITPLHLAAQHGHLEIVEVLLKAGADVNAKDVWGRTPLHLAAWQGHLEIVEVLLKAGADVNAKDLAGATPLHVAALYGHLEIVEVLLKAGADVNAQDKSGKTPADLAARAGHQDIAEVLQKAA
- kon [4]: 1.54e+06 M⁻¹ s⁻¹

B4: vS07_08F10v47 (designed binder)
chain: MRGSHHHHHHGSDLGKKLLLAARAGQLDEVRILLKAGADVNAKDVFGQTPLHTAAVAGHLEIVEVLLKAGADVNAKDKVGYTPLHLAAQSGHLEIVEVLLKAGADVNAKDVVGVTPADLAAFEGHQDIAEVLQKAA
- binding result [5]: binds

B5: vS07_19G10 (designed binder)
chain: MRGSHHHHHHGSDLGNKLLDAAWVGQDDEVRILLAAGADVNAKDWQGETPLHLAATKGHLEIVEVLLKAGADVNAKDVVGYTPLHVAASQGHLEIVEVLLKAGADVNAQDVHGYTPADLAAQAGHEDIAEVLQKAA
notes: also called R2a
- Kd [3]: 260 pM
- koff [6]: 0.000179 s⁻¹
- kon [6]: 693000 M⁻¹ s⁻¹
- binding result [2]: binds

B6: vS07_08F10 (designed binder)
chain: MRGSHHHHHHGSDLGHKLLLAAQAGQDDEVRILLAAGADVNAKDVFGQTPLHVAAVAGHLEIVEVLLKAGADVNAKDSIGYTPLHHAARVGHLEIVEVLLKAGADVNAQDWIGITPADLAAFEGHEDIAEVLQKAA
notes: also called S1a
- koff [7]: 0.00086 s⁻¹
- kon [7]: 695000 M⁻¹ s⁻¹
- Kd [8]: 20000 pM
- Kd [9]: 1200 pM

B7: vS07_08F10v27 (designed binder)
chain: MRGSHHHHHHGSDLGKKLLLAARAGQLDEVRILLKAGADVNAKDVFGQTPLHVAAVAGHLEIVEVLLKAGADVNAKDSIGYTPLHHAARVGHLEIVEVLLKAGADVNAKDWIGITPADLAAFEGHQDIAEVLQKAA
- binding result [5]: binds

B8: vS07_14G03 (designed binder)
chain: MRGSHHHHHHGSDLGQKLLHAAQYGQDDEVRILLAAGADVNAKDKQGNTPLHIAAFHGHLEIVEVLLKAGADVNAKDQWGLTPLHLAAAWGHLEIVEVLLKAGADVNAQDNYGQTPADLAAESGHEDIAEVLQKAA
notes: also called S2a
- koff [7]: 0.00352 s⁻¹
- kon [7]: 4.49e+06 M⁻¹ s⁻¹
- Kd [9]: 790 pM

B9: vS07_23E04 (designed binder)
chain: MRGSHHHHHHGSDLGKKLLQAARAGQLDEVRELLKAGADVNAKDQEGITPLHVAAHQGHLEIVEVLLKAGADVNAKDVWGRTPLHLAAWRGHLEIVEVLLKAGADVNAKDHAGATPLHAAALSGHLEIVEVLLKAGADVNAQDKSGKTPADLAARAGHQDIAEVLQKAA
notes: also called R3c
- Kd [3]: 90 pM
- koff [10]: 0.000234 s⁻¹
- kon [10]: 2.59e+06 M⁻¹ s⁻¹
- binding result [2]: binds

B10: vS07_22E12 (designed binder)
chain: MRGSHHHHHHGSDLGKKLLQAARAGQLDEVRELLKAGADVNAKDKIGVTPLHIAAEVGHLEIVEVLLKAGADVNAKDVWGRTPLHLAAWSGHLEIVEVLVKAGADVNAKDIAGATPLHAAALFGHLEIVEVLLKVGADVNAQDKSGKTPADLAARAGHQDIAEVLQKAA
notes: also called R3a
- Kd [3]: 240 pM
- koff [10]: 0.000308 s⁻¹
- kon [10]: 1.3e+06 M⁻¹ s⁻¹
- binding result [2]: binds

B11: vS07_12C06 (designed binder)
chain: MRGSHHHHHHGSDLGKKLLQAARAGQLDEVRELLKAGADVNAKDREGKTPLHVAAQEGHLEIVEVLLKAGADVNAKDVWGRTPLHLAAWIGHLEIVEVLLKAGADVNAKDVSGATPLHAAALHGHLEIVEVLLNAGADVNAQDKSGKTPADLAARAGHQDIAEVLQKAA
notes: also called R1b; Rb1
- Kd [3]: 21 pM
- koff [6]: 2.64e-05 s⁻¹
- kon [6]: 1.26e+06 M⁻¹ s⁻¹
- binding result [2]: binds

B12: vS07_29B10 (designed binder)
chain: MRGSHHHHHHGSDLGKKLLQAARAGQLDEVRELLKAGADVNAKDREGITPLHLAAQHGHLEIVEVLLKAGADVNAKDVWGRTPLHLAAWQGHLEIVEVLLKAGADVNAKDLAGATPLHVAALYGHLEIVEVLLKAGADVNAQDKSGKTPADLAARAGHQDIAEVLQKAA
notes: also called R3b
- Kd [3]: 81 pM
- koff [10]: 0.000148 s⁻¹
- kon [10]: 1.82e+06 M⁻¹ s⁻¹
- binding result [2]: binds

B13: vS07_06F12 (designed binder)
chain: MRGSHHHHHHGSDLGKKLLQAARAGQLDEVRELLKAGADVNAKDREGWTPLHLAAHQGHLEIVEVLLKAGADVNAKDVFGRTPLHLAAWVGHLEIVEVLLKAGADVNAKDVSGATPLHPAAIYGHLEIVEVLLKAGADVNAQDKSGKTPADLAARAGHQDIAEVLQKAA
notes: also called R1a
- Kd [3]: 250 pM
- koff [6]: 0.000243 s⁻¹
- kon [6]: 963000 M⁻¹ s⁻¹
- binding result [2]: binds

B14: ALE030 (designed binder)
chain: MRGSHHHHHHGSDLGKKLLEAARAGQDDEVRELLKAGADVNAKDYFSHTPLHLAARNGHLKIVEVLLKAGADVNAKDFAGKTPLHLAANEGHLEIVEVLLKAGADVNAQDIFGKTPADIAADAGHEDIAEVLQKAAGSPTPTPTTPTPTPTTPTPTPTGSDLGKKLLEAARAGQDDEVRELLKAGADVNAKDYFSHTPLHLAARNGHLKIVEVLLKAGADVNAKDFAGKTPLHLAANEGHLEIVEVLLKAGADVNAQDIFGKTPADIAADAGHEDIAEVLQKAAGSPTPTPTTPTPTPTTPTPTPTGSDLGKKLLQAARAGQLDEVRELLKAGADVNAKDREGITPLHLAAQHGHLEIVEVLLKAGADVNAKDVWGRTPLHLAAWQGHLEIVEVLLKAGADVNAKDLAGATPLHVAALYGHLEIVEVLLKAGADVNAQDKSGKTPADLAARAGHQDIAEVLQKAAGSPTPTPTTPTPTPTTPTPTPTGSDLGNKLLDAAWVGQDDEVRILLAAGADVNAKDWQGETPLHLAATKGHLEIVEVLLKAGADVNAKDVVGYTPLHVAASQGHLEIVEVLLKAGADVNAQDVHGYTPADLAAQAGHEDIAEVLQKAAGSPTPTPTTPTPTPTTPTPTPTGSDLGKKLLQAARAGQLDEVRELLKAGADVNAKDREGKTPLHVAAQEGHLEIVEVLLKAGADVNAKDVWGRTPLHLAAWIGHLEIVEVLLKAGADVNAKDVSGATPLHAAALHGHLEIVEVLLNAGADVNAQDKSGKTPADLAARAGHQDIAEVLQKAA
- Kd [11]: 0.142 pM
- koff [11]: 1.15e-07 s⁻¹
- kon [11]: 810000 M⁻¹ s⁻¹

— US20220235103A1 (Molecular Partners, published 2022)
